The target in assay [1] is TND-669S HIV-1 envelope (HIV-1). Put plainly: cell-based or functional assay.
In assay [2] the target is TND-669L HIV-1 envelope (HIV-1). The assay can be described thus: cell-based or functional assay.
In assay [3] the target is SP62 (gp41 652-671)-GTH1 peptide anchored to liposomes. Put plainly: SPR on peptide-liposomes, encounter-docking (two-step) model, dissociation of the encounter step; row '2F5 peptide liposome'.
For assay [4] the target is unchanged. Put plainly: SPR on peptide-liposomes, encounter-docking (two-step) model, association of the encounter step; row '2F5 peptide liposome'.
Assay [5] has the same target. Put plainly: SPR on peptide-liposomes, encounter-docking (two-step) model, reverse rate of the docking step; row '2F5 peptide liposome'.
The target of assay [6] is SP62-L669S (gp41 652-671)-GTH1 peptide anchored to liposomes. The assay can be described thus: SPR, peptide anchored to phospholipid liposomes. Background: Surface plasmon resonance follows binding to a sensor surface in real time, without labels.
Assay [7] concerns the target SP62 (gp41 652-671)-GTH1 peptide anchored to liposomes. The assay can be described thus: SPR, peptide anchored to phospholipid liposomes.
Assay [8] has the same target. Put plainly: SPR on peptide-liposomes, encounter-docking (two-step) model, forward rate of the docking step; row '2F5 peptide liposome'.
Assay [9] has as its target SP62-L669S (gp41 652-671)-GTH1 peptide anchored to liposomes. The assay can be described thus: SPR on peptide-liposomes, encounter-docking (two-step) model, forward rate of the docking step; row 'L669S 2F5 peptide liposome'.
Assay [10] has the same target. Put plainly: SPR on peptide-liposomes, encounter-docking (two-step) model, reverse rate of the docking step; row 'L669S 2F5 peptide liposome'.
For assay [11] the target is unchanged. The assay can be described thus: SPR on peptide-liposomes, encounter-docking (two-step) model, dissociation of the encounter step; row 'L669S 2F5 peptide liposome'.
For assay [12] the target is unchanged. Put plainly: SPR on peptide-liposomes, encounter-docking (two-step) model, association of the encounter step; row 'L669S 2F5 peptide liposome'.

The values that follow come from patent US20120128758A1.

mAb 447-52D (antibody): in assay [1], the enhancement of neutralization sensitivity against TND-669L is > 161 fold and the neutralization of Env-pseudovirus, IC50 worked out at 0.31 µg/mL.

With mAb 4E10 (antibody), in [1], the fold lower neutralisation IC50 against TND-669S than against TND-669L turned out to be 275 fold and the mean IC50, neutralisation of Env-pseudovirus on JC53-BL cells was 0.031 µg/mL. In assay [2], this substance returned a mean IC50, neutralisation of Env-pseudovirus on JC53-BL cells of 8.49 µg/mL.

As to mAb 2F5 (antibody), the results for the mean IC50, neutralisation of Env-pseudovirus on JC53-BL cells in assay [1] and in assay [2] were 0.014 µg/mL and 3.92 µg/mL, respectively. Also, the kd1 in [3] was found to be 0.00692 s⁻¹; in assay [11], 0.00119 s⁻¹. The ka1 in [4] came to 931000 M⁻¹ s⁻¹; in assay [12] it was 498000 M⁻¹ s⁻¹. For the same substance, the results for the kd2 in [5] and in [10] were 0.00037 s⁻¹ and 2e-05 s⁻¹, respectively. This substance also displayed a response unit (background subtracted) at 10 seconds after the injection was stopped in [6] of 617 RU. This substance also yielded a response unit at 10 seconds after the injection was stopped in assay [7] of 495 RU. The ka2 in assay [8] came out at 0.0181 s⁻¹; in assay [9], 0.0054 s⁻¹.

For mAb 17b (antibody), the increase in neutralization sensitivity against TND-669L in assay [1] worked out at 2 fold.
